Test results published in IntAct's records for PubMed 28424519.

Molecular target: snf2_yeast SNF2 (UniProt P22082)
Chain of UniProt P22082 (P22082 whole entry): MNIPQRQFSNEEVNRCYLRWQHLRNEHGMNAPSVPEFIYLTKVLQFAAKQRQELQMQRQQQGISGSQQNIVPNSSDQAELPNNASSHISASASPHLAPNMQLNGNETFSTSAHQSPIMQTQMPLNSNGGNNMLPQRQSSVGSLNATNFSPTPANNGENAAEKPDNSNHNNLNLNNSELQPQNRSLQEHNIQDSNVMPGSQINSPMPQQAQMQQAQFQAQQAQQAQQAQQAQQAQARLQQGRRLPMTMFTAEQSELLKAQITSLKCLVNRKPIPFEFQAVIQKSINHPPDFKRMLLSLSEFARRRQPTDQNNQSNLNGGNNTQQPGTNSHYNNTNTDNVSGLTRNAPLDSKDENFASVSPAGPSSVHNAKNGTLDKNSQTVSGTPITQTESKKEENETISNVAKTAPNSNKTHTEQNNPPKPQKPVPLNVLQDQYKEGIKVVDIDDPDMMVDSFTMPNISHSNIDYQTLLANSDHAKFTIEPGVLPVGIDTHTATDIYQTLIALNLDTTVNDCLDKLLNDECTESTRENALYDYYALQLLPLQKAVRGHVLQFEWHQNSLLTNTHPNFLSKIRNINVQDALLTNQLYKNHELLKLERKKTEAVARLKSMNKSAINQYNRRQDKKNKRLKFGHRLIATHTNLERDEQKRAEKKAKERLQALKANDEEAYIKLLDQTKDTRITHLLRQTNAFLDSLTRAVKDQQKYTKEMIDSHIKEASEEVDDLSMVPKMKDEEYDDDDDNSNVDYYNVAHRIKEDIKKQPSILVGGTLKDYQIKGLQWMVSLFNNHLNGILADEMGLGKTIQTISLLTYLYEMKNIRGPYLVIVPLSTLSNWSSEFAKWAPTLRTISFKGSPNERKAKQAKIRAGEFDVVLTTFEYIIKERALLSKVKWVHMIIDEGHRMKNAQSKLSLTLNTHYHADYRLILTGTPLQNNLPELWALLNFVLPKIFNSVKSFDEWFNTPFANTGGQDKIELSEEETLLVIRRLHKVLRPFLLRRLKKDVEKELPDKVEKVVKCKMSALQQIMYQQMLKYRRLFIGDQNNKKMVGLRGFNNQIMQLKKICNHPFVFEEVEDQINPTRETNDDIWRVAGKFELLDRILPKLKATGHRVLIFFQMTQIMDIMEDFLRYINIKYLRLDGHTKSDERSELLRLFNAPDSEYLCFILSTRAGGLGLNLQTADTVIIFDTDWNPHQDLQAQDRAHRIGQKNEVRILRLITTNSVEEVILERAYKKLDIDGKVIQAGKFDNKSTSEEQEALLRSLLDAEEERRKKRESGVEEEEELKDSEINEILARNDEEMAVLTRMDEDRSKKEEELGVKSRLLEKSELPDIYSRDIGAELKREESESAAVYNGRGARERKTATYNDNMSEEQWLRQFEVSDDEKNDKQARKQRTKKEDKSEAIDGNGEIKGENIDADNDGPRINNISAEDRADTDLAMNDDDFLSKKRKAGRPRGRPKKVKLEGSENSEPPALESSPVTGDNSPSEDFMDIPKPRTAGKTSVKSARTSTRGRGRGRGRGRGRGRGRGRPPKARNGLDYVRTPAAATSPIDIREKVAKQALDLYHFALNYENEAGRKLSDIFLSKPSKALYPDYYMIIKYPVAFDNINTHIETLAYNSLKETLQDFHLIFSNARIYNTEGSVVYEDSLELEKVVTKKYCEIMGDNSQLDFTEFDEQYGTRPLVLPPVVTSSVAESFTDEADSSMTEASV

| Substance | effect of a mutation on the interaction |
| --- | --- |
| Histone H4 (Saccharomyces cerevisiae) (from UniProt P02309) K17A;R18A;R20A | decreasing interaction |
| Histone H4 (Saccharomyces cerevisiae) (from UniProt P02309) R18A | decreasing interaction |
| Histone H4 (Saccharomyces cerevisiae) (from UniProt P02309) R20A | decreasing interaction |
| Histone H4 (Saccharomyces cerevisiae) (from UniProt P02309) K17A | decreasing interaction |
